Measurements from article PMC13462943.

Assays:
[1] = target: T1, G9a methyltransferase domain (aa residues 913-1193), Del 1163-4, Q96KQ7-1; experiment: native mass spectrometry (nESI-MS); conditions: chain shown with the change;; read off a plot
T1 chain: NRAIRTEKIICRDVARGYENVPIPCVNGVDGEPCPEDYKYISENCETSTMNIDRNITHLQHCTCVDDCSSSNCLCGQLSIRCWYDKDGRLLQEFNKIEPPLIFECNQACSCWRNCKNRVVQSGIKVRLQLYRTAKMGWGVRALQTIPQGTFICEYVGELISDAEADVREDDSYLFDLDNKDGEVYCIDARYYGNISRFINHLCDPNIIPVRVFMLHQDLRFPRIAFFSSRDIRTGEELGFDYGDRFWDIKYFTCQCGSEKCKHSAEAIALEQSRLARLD

[2] = target: T2, N-terminal histone H3 peptide (amino acid residues 1-20), P68431; experiment: native mass spectrometry; conditions: chain shown with the change, protein and substrate concentrations 5 µM
[3] = target: T2, N-terminal histone H3 peptide (amino …); experiment: differential scanning fluorimetry; conditions: chain shown with the change; 500 µM histone H3 peptide; parent: est. 4.4; read off a plot

B1: G9a methyltransferase domain (aa residues 913-1193), wild type, Q96KQ7-1 S1163del; K1164del (protein)
chain: T1 chain
ratio to parent [1]: 0.58
other: relative abundance, 2x peptide bound ([2]; parent: 24): < 1
other: relative abundance, free protein ([2]; parent: 30): 88
other: relative abundance, 1x peptide bound ([2]; parent: 46): 11
other: ΔTm upon substrate addition [3]: 2.3 °C
